We go through 1 molecule from patent US12331106B2, “Anti-angiopoietin-2 antibodies that induce Tie2 activation” (Institute for Basic Science, priority 2018, dated 2025).

For assay [1], the system named is tumor vessels of LLC tumor. Put plainly: Tumor vessel perfusion (lectin) and hypoxia (Hypoxyprobe) in LLC tumors. Format: in vivo, C57BL/6 mice. The following applies: compared with Fc or Fc+Cpt. As for the experimental part:
To analyze the functionality of tumor vessels after treatment with 2C8H11, vessel perfusability and hypoxia status were evaluated. Before harvesting tumor mass, the mice were intravenously injected with 100 μl of DyLight™ 488-Lectin (Vector laboratory) and intraperitoneally injected with 60 mg/kg of Pimonidazole-HCl (HYPOXYPROBE™+) dissolved in PBS for 30 min before sacrifice. The mice were perfusion-fixed with 4% PFA. We obtained frozen sections from the tumor mass, which were stained with hamster anti-CD31 antibody (1:200, Millipore®) and 4.3.11.3 mouse Pacific blue-Mab (1:50, HYPOXYPROBE™+) in PBS. The sections were imaged using LSM880 confocal microscope (Zeiss), and the obtained images were analyzed using ImageJ software (http://rsb.info.nih.gov/ij) to quantify Lectin+area/CD31+area and HYPOXYPROBE™+area.
Furthermore, hypoxia, as indicated by HYPOXYPROBE™+area, was decreased in tumors treated with 2C8H11 or 2C8H11+Cpt by 72%, when compared with tumors treated with Fc or Fc+Cpt (FIG. 11C).

Another assay deals with Tie2 receptor. The assay can be described thus: Tie2 phosphorylation in HUVECs (immunoprecipitation/Western). The note with it: antibody 0.02-50 μg/ml with hAng2 1 μg/ml, 30 min. The class given is cell-based, human. The method, then: Ang2 binds to the Tie2 receptor and acts as a weak agonist or antagonist. The anti-Ang2 antibody developed in this invention binds to Ang2 to induce Ang2-antibody complexes, further causing clustering of Tie2 receptors and consequently enhancing activation of Tie2 receptor. Experiments were conducted to analyze the effect of anti-Ang2 antibody on Tie2 phosphorylation using HUVECs.
Specifically, HUVECs (LONZA™) were cultured in EGM-2 (LONZA™) at 37° C. and 5% CO2 concentration in a 100 mm culture dish. At 80-90% confluency, the cells were changed to EBM-2 (LONZA™) medium for 2 hrs˜ 6 hrs for serum starvation. Humanized anti-Ang2 antibodies at various concentrations (0.02 μg/ml to 50 μg/ml) were mixed with hAng2 protein (1 μg/ml, R&D® Systems) for 30 min. Then, the mixtures were treated with the cultured cells and further incubated for 30 min. The cells were washed twice with cold PBS and then lysed in 1000 μl of lysis buffer (10 mM Tris-Cl pH 7.4, 150 mM NaCl, 5 mM EDTA, 10% glycerol, 1% TRITON™ X-100 (non-ionic polyoxyethylene surfactant), protease inhibitor, phosphatase inhibitor) and then lysed at 4° C. for 60 min. Cell extracts were prepared and centrifuged at 12,000 rpm for 10 min. The supernatant was quantitated by bicinchoninic (BCA) assay.
To 0.5 mg of cell lysate, 1 μg of Tie2 antibody (R&D® Systems, AF313) was added and incubated overnight at 4° C. […]

B1: 2C8H11: humanized anti-Ang2 human IgG1 antibody from mouse 2C8; VH SEQ ID NO: 55, VL SEQ ID NO: 56 (antibody, V domains shown)
VH: QVQLVQSGAEVKKPGASVKVSCKASGYTFTSYWMHWVRQAPGQGLEWMGMIDPSDSETRLNQKFKDRVTMTRDTSTSTVYMELSSLRSEDTAVYYCARRFYYGSDWYFDVWGQGTLVTVSS
VL: DIQLTQSPSFLSASVGDRVTITCKASQDVGTAVAWYQQKPGKAPKLLIYWASTRHTGVPSRFSGSGSGTEFTLTISSLQPEDFATYYCQQYSSYPLTFGQGTKVEIK
modifications: human IgG1 constant regions; VH; VL
Turning to B1, in assay [1], the “hypoxia decrease (HYPOXYPROBE+ area)” value came to 72% and the “increase in perfusion (Lectin+ area/CD31+ area)” value is given as “approximately 3 fold”. For the same molecule, in the assay with Tie2 receptor, the “phosphorylation of Tie2” value was “strongly induced in a dose-dependent manner”.
